Source: the supplement of paper PMC12764529
± gives the half width of the 95% confidence interval.

Experiment: folding stability dG unfold from trypsin proteolysis; higher = more stable
Procedure, shortened: (§1)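 Only designs with AlphaFold2 dimer inter-PAE above 15 were retained; each was a mini-protein under 80 residues with no cysteine, in a PA-tagged cDNA display construct. After digestion with trypsin and chymotrypsin and sequencing, K50 was inferred by Bayesian fitting of counts, and unfolding free energy was derived per protease or combined against a sequence-predicted unfolded-state K50 and a shared folded-state K50.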

| Sequence | folding stability dG unfold [kcal/mol] |
| --- | --- |
| DWLIRIKFTYKGPDGNKHEMKIIVRVPESPEQAKEEVEDIARMIMEEQGYPPENIKKIKVEVIPPGEELTPS [r1_159_TrROS] | 3.46 ± 0.1 |
| SAGEKVEITLVVKVEKDEDGRYRLTEEELREIAKALGLDFEVKSVEIERVPGYLVIRVTVDGKEYEFLSAGG [r19_398_TrROS_Hall] | 2.95 ± 0.089 |
| SAGGSAGGSAGGSSTSLIGNSTVTVDPVYVTDTGERGFVISADVPPSVSEAVVEAHVASSAGGSAGGSAGGS [r10_531_JUSTAS] | 0.869 ± 0.028 |
| SAGGSAKTKTITLKIKIVDPKTNKVYEFEIKIEVELTLDKNGKLTAKIKKIEIKAPKNSPLLKKLLSAGGSA [r15_258_TrROS_Hall] | 2.57 ± 0.063 |
| SAGGMEIKIEKEGNKIKITIKNENGEIEEFEITLKDGKKYRIIIDKDNPNTIYIVDEKTGKTIVLKASAGGS [r16_198_TrROS_Hall] | 4.6 ± 0.64 |
| SAMPIESVEFHPEEGVITLRFRAPAHPDAEKFEIEVVVDGAEAGEIEVEVDPETNEVRALVRVKIPKGASAG [r14_244_TrMRF] | 2.71 ± 0.1 |
| SAGGSAPKIRVEIEIDPDNGTIKLEVQHDGKPVFEMTMRIDPNGKIKEMKFTFYVDPDNGKLEIMMSAGGSA [r15_770_TrROS] | 3.68 ± 0.25 |
| SAGGSAGGSMPVVVEPTTIGDIEVTRVVLPDGTVVVYTKAPTTLKVTYRPLATGEEEEEVFPELSAGGSAGG [r6_555_JUSTAS] | 1.01 ± 0.011 |
| SAGGLEIEVFNEKGEPVEVRLRRKEDDTLELEVRFRDASGREYRARATVRVKETEIELGEVDEWEELESAGG [r13_451_TrMRF] | 2.19 ± 0.09 |
| SSYTVLEEKVESDPNKDSLTYLTLKTPDGRELTVTEPVKKVDDSWITNSTLTDPVGGRTTTSTTTVKLSGSA [r9_269_JUSTAS] | -0.977 ± 0.29 |
| SAGGSAGGSMPPLAPDETVTQTLPSPDGSEVLVTYTWVPGEGLVETKVTDPATGKTTSTKTPVPSAGGSAGG [r6_440_JUSTAS] | 0.0545 ± 0.067 |
| SAGGIEVDPEHKHVHIHIPNGNIPELLDLIEDAPGDHVSIHFYNPGNGKPRRFTMPRKEARKFLEQFSAGGS [r16_797_TrROS] | 1.13 ± 0.033 |
| SAGGSVEIWILLPPNNPDLDKIREKLRDEPGIDDVNVKVVKPTPGYWVFEIEVNGDPEVADKIRDLISAGGS [r16_394_TrROS] | 1.09 ± 0.1 |
| GKAEVVRVEYDPETGALRVVLRREGADVVLEVDPETGVARVYFPADPRVLEFEFDTLEEAVDAAVALLEAGS [r1_177_TrMRF] | 3.59 ± 0.17 |
| SMKVVKLYTDPEGRVVIEITLPKPDGTPVSEEEAKAIADEIAAELKPKYPNATFEITYDPKTGVVTITIGSA [r9_485_JUSTAS] | 3.49 ± 0.13 |
| SAGGMILEIEFPPELIEELLEKLKKEFPDVEVKPLKIEYDPETGLVKVPILVKTKNPEEVEKIKKLAASAGG [r13_539_TrMRF] | 2.91 ± 0.15 |
| SATFTLPDGREVEVVSVEYDPETNTVTVLVRDRETGELYVFTFERLPDGEWRIVSRERVRVEPGETVLVSAG [r14_13_TrROS_Hall] | 2.02 ± 0.025 |
| SAGGSAIKIIPNGDGIYIKIWFNNQPHPIPIESPEDAEEQVKSILDKFQKRNGMDIPEDMKVEIYPSAGGSA [r15_496_TrROS] | 0.419 ± 0.054 |
| SAGGSAGGSAGMRIVLRLPRDVPLEALRRELEALGGEVRIETEDDPDGRLLFVVELRPKESAGGSAGGSAGG [r11_1050_TrMRF] | 1.63 ± 0.061 |
| SADPNYHYKYKIKIEIAWFPPDDLEKLPPGMIMIPFDDHWIMIVIKLEPVEREPPPPPPEYDPETGDWKSAG [r14_126_TrROS] | 2.5 ± 0.43 |
| SAGGSAGGSAKEIEVRVEKDEETGKYRVTIRVDGKEIEIEVDVPKTLEEAERKAKELLKELSAGGSAGGSAG [r3_104_TrROS_Hall] | 2.53 ± 0.082 |

| Sequence | folding stability dG unfold [kcal/mol] |
| --- | --- |
| SAGGSAKMTLIIKVSPEMTKEELEELARKLAEELNVKVEIEYDEETGLATVTIEKDGKKIEIIVERSAGGSA [r15_168_TrROS_Hall] | 1.98 ± 0.083 |
| SETITLEIELPDGSKLTIEIPVEKIPGVDEYVVTVKITEYLPNGKPRSREFTFLAKSPEEAVEIALLAAGSA [r9_337_TrMRF] | 4.7 ± 0.24 |
| SAGGESYPFIGRNPETNALIEVTVTKLESGEYLVNATITNPNGETVEFPFTFPANSLTPESEIDVTITSAGG [r13_959_TrMRF] | 1.65 ± 0.051 |
| SAGGSAEVELVKVEVNPDGPYVKATFRIPGGGDVAVLVFDPDRPNTARLIVRPPNNEPIAEIELPLSAGGSA [r15_974_TrMRF] | 1.52 ± 0.046 |
| SAGGSAGGSAMVVEVPVEFPDDVKVYSVEEDPELGVLLVKVKFPDREVLAVIPGDKLFIADASAGGSAGGSA [r18_212_TrMRF] | 0.43 ± 0.016 |
| SAGGMPEKVVVLRIRVTIRRDGEEEEIELEIRLPEEGQELTEEQLLALLRELLPPGYEIRRVEIEELSAGGS [r16_407_TrROS_Hall] | 4.63 ± 0.077 |
| MTKKTVTLPIPEPIRAAIEAGKPLPLEEIVDLVRDVVAKELGFKDVKVLSVEIKPLPNGEIVVEVTVEFPES [r1_290_TrMRF] | 3.09 ± 0.28 |
| SAGMEKAINLAKEYAKKLGLPLESINVTEIGNSVIIEMKIPEKGETITVNIPIHPDGTISLNIKFEKKKSAG [r5_888_JUSTAS] | 1.2 ± 0.037 |
| SMKKPIDLIKKLGYTLTSVTKLPNGTTLITFEHPDSTVTVTVNPDGNIKITTTNPKNGTTTTTTIPVNKLSA [r9_2_JUSTAS] | 1.95 ± 0.08 |
| SAGGSAGGSAGGMTPEEIEALKARPLPDGSPILSIDREGNVYTITTARDPSVRTTVIPAESAGGSAGGSAGG [r7_995_JUSTAS] | -0.623 ± 0.61 |
| SAGGSAGGSAMKTLVIEGLSLEEIEELAKEIPGKTVRIVFKDGSVITIYPDGKIEIEPLPESAGGSAGGSAG [r3_269_TrROS_Hall] | 1.75 ± 0.059 |
| SAGKMVKVEIVIDVPPEEITEEELKAILEEEAEEVEITFDEETGKITITVTVSEEEAEKLREALKELGASAG [r5_378_TrROS_Hall] | 1.02 ± 0.13 |
| SAGGSAGGSAGGKKKKVIEIELKPGEKLTLEQIKEIAKKLNVKKVKVEKVDGKLKIVVESAGGSAGGSAGGS [r10_642_TrROS_Hall] | 0.502 ± 0.057 |
| SAGGTIYIWFPMKVDEAVDLAKELAENKDWKIEIYNGGKEHEIELDKIEPVPPENVRVYIEIEPKPDSAGGS [r16_628_TrROS] | 0.423 ± 0.041 |
| SAGSSLNILLELETPEEAEKEAARIKEEIPKKGISVTVTIVSKEELEKLLKENVIELPNGSLKLVLFPSAGG [r19_187_JUSTAS] | 0.201 ± 0.11 |
| SAGGSAGGSANVKLKIDLDPGYGYIKIKLEWEDPGTGNKQEMEITIPIPIPPPPPPPANDKKSAGGSAGGSA [r18_361_TrROS] | 1.12 ± 0.11 |
| SAGGSAGGSKKKVKVVKVEKPEGDYYVVTVYYEDGKLLKKVVFPKGVKPEEVLEKVKKLVEEESAGGSAGGS [r12_798_TrMRF] | 1.95 ± 0.043 |
| SAGGSAGGSAGGKIENWKITKVETKLHPNGFPYLVIELSNEKKKIRVLIYPNGELKAFEESAGGSAGGSAGG [r7_675_TrMRF] | 2.8 ± 0.42 |
| SAGGSAGGSMVPGKLLVTITDPNNGLTTTLDLPLEVKTEEDIEAEVQKIKEENPGKKVSVKLLSAGGSAGGS [r12_65_JUSTAS] | 1.65 ± 0.057 |
| SAGITILFNSAEDAENFAEELAEDYPNMNVTIKIHDPEHGEPVEIPVKIPPPPPKPKRDPDNGNKKYEGSAG [r5_870_TrROS] | -0.132 ± 0.043 |
| SAGGSAGGSAGGPKLVLKIKTEIKIEKKLEFDPETGELTEEIEIEIKIEIELEPLPEGLSAGGSAGGSAGGS [r10_376_TrROS_Hall] | 1.32 ± 0.25 |

Experiment: folding stability dG unfold (combined trypsin and chymotrypsin); higher = more stable
Procedure, shortened: as §1

| Sequence | folding stability dG unfold [kcal/mol] |
| --- | --- |
| DWLIRIKFTYKGPDGNKHEMKIIVRVPESPEQAKEEVEDIARMIMEEQGYPPENIKKIKVEVIPPGEELTPS [r1_159_TrROS] | 3.91 ± 0.14 |
| SAGEKVEITLVVKVEKDEDGRYRLTEEELREIAKALGLDFEVKSVEIERVPGYLVIRVTVDGKEYEFLSAGG [r19_398_TrROS_Hall] | 2.98 ± 0.069 |
| SAGGSAGGSAGGSSTSLIGNSTVTVDPVYVTDTGERGFVISADVPPSVSEAVVEAHVASSAGGSAGGSAGGS [r10_531_JUSTAS] | 0.485 ± 0.05 |
| SAGGSAKTKTITLKIKIVDPKTNKVYEFEIKIEVELTLDKNGKLTAKIKKIEIKAPKNSPLLKKLLSAGGSA [r15_258_TrROS_Hall] | 2.68 ± 0.24 |
| SAGGMEIKIEKEGNKIKITIKNENGEIEEFEITLKDGKKYRIIIDKDNPNTIYIVDEKTGKTIVLKASAGGS [r16_198_TrROS_Hall] | 4.71 ± 0.3 |
| SAMPIESVEFHPEEGVITLRFRAPAHPDAEKFEIEVVVDGAEAGEIEVEVDPETNEVRALVRVKIPKGASAG [r14_244_TrMRF] | 3.7 ± 0.25 |
| SAGGSAPKIRVEIEIDPDNGTIKLEVQHDGKPVFEMTMRIDPNGKIKEMKFTFYVDPDNGKLEIMMSAGGSA [r15_770_TrROS] | 4.43 ± 0.17 |
| SAGGSAGGSMPVVVEPTTIGDIEVTRVVLPDGTVVVYTKAPTTLKVTYRPLATGEEEEEVFPELSAGGSAGG [r6_555_JUSTAS] | 1.01 ± 0.056 |
| SAGGLEIEVFNEKGEPVEVRLRRKEDDTLELEVRFRDASGREYRARATVRVKETEIELGEVDEWEELESAGG [r13_451_TrMRF] | 2.21 ± 0.26 |
| SSYTVLEEKVESDPNKDSLTYLTLKTPDGRELTVTEPVKKVDDSWITNSTLTDPVGGRTTTSTTTVKLSGSA [r9_269_JUSTAS] | -0.487 ± 0.13 |
| SAGGSAGGSMPPLAPDETVTQTLPSPDGSEVLVTYTWVPGEGLVETKVTDPATGKTTSTKTPVPSAGGSAGG [r6_440_JUSTAS] | -0.0833 ± 0.16 |
| SAGGIEVDPEHKHVHIHIPNGNIPELLDLIEDAPGDHVSIHFYNPGNGKPRRFTMPRKEARKFLEQFSAGGS [r16_797_TrROS] | 1.04 ± 0.044 |
| SAGGSVEIWILLPPNNPDLDKIREKLRDEPGIDDVNVKVVKPTPGYWVFEIEVNGDPEVADKIRDLISAGGS [r16_394_TrROS] | 1.51 ± 0.26 |
| GKAEVVRVEYDPETGALRVVLRREGADVVLEVDPETGVARVYFPADPRVLEFEFDTLEEAVDAAVALLEAGS [r1_177_TrMRF] | 4.36 ± 0.14 |
| SMKVVKLYTDPEGRVVIEITLPKPDGTPVSEEEAKAIADEIAAELKPKYPNATFEITYDPKTGVVTITIGSA [r9_485_JUSTAS] | 2.97 ± 0.1 |
| SAGGMILEIEFPPELIEELLEKLKKEFPDVEVKPLKIEYDPETGLVKVPILVKTKNPEEVEKIKKLAASAGG [r13_539_TrMRF] | 2.83 ± 0.11 |
| SATFTLPDGREVEVVSVEYDPETNTVTVLVRDRETGELYVFTFERLPDGEWRIVSRERVRVEPGETVLVSAG [r14_13_TrROS_Hall] | 2.94 ± 0.07 |
| SAGGSAIKIIPNGDGIYIKIWFNNQPHPIPIESPEDAEEQVKSILDKFQKRNGMDIPEDMKVEIYPSAGGSA [r15_496_TrROS] | 0.994 ± 0.2 |
| SAGGSAGGSAGMRIVLRLPRDVPLEALRRELEALGGEVRIETEDDPDGRLLFVVELRPKESAGGSAGGSAGG [r11_1050_TrMRF] | 1.8 ± 0.14 |
| SADPNYHYKYKIKIEIAWFPPDDLEKLPPGMIMIPFDDHWIMIVIKLEPVEREPPPPPPEYDPETGDWKSAG [r14_126_TrROS] | 3.23 ± 0.46 |
| SAGGSAGGSAKEIEVRVEKDEETGKYRVTIRVDGKEIEIEVDVPKTLEEAERKAKELLKELSAGGSAGGSAG [r3_104_TrROS_Hall] | 2.66 ± 0.066 |
